Measured values taken from article PMC11609450, “Structure function analysis of ADP-dependent cyanobacterial phosphofructokinase reveals new phylogenetic grouping in the PFK-A family” (The Journal of Biological Chemistry, 2024).
Values belong to the molecule of their own block, whether it stands above or below them.

Assays:
PFK-A1 (Sll1196) [1] = molecular target: T1, PFK-A1 (Sll1196) (Synechocystis sp. PCC 6803, UniProt P72830); assay: coupled NADH assay (aldolase/TPI/GPDH), […] nm; global MWC fit; assay type: biochemical; conditions: read-out: PFK-A11
T1 construct: gene pfkA1

[2] = molecular target: T2, PFK-A1 from A. brasilense (Azospirillum brasilense, UniProt A0A560AK87); assay: coupled NADH assay, phosphate donor specificity; assay type: biochemical; conditions: 1 mM F6P, 2 mM ADP, 10 mM MgCl2, pH 7.7, 30 °C
T2 construct: gene pfkA; codon-optimized gene in pET15b, His tag, E. coli Rosetta (DE3), IMAC
T2 sequence (A0A560AK87 1-361): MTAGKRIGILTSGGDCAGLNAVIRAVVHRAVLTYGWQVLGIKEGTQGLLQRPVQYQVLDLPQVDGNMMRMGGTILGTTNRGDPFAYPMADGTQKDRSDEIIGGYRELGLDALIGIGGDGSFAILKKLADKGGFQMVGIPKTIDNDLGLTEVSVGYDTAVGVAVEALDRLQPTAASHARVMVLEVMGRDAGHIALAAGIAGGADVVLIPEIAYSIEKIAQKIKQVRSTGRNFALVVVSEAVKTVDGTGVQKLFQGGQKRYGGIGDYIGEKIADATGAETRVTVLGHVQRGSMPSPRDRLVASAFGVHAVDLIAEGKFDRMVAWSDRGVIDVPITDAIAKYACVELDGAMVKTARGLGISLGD

[3] = molecular target: T3, PFK-A2 from M. aeruginosa PCC 9808 (Microcystis aeruginosa, UniProt I4HJC6); assay: coupled NADH assay, phosphate donor specificity; assay type: biochemical; conditions: 1 mM F6P, 2 mM ADP, 10 mM MgCl2, pH 7.7, 30 °C
T3 construct: gene pfkA; codon-optimized gene in pET15b, His tag, E. coli Rosetta (DE3), IMAC
T3 sequence (I4HJC6 1-402): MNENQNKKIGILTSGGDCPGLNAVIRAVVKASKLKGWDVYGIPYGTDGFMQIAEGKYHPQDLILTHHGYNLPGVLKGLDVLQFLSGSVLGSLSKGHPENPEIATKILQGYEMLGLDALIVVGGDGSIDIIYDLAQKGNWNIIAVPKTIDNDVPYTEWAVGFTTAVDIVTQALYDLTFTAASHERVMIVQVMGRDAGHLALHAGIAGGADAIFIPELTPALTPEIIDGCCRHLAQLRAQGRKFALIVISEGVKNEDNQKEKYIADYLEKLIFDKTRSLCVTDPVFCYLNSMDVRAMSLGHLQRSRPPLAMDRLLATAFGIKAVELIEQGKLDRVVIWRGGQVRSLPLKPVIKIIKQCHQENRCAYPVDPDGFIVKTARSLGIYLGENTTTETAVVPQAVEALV

[4] = molecular target: T4, PFK-A1 from Crocosphaera subtropica (Crocosphaera subtropica, UniProt B1WQ98); assay: coupled NADH assay, phosphate donor specificity; assay type: biochemical; conditions: 1 mM F6P, 2 mM ADP, 10 mM MgCl2, pH 7.7, 30 °C
T4 construct: gene pfkA1; codon-optimized gene in pET15b, His tag, E. coli Rosetta (DE3), IMAC
T4 sequence (B1WQ98 1-360): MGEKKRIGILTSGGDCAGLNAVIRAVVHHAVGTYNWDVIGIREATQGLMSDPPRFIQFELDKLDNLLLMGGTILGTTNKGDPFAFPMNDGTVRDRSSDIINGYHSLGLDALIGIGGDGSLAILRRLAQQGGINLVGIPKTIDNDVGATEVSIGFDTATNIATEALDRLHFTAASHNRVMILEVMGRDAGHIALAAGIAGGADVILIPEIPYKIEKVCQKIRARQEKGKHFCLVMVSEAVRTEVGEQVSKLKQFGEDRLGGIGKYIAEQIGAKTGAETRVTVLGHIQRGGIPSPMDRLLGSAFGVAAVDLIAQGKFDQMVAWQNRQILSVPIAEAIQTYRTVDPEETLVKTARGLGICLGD

PFK-A1 (Sll1196) [5] = molecular target: T1, PFK-A1 (Sll1196); assay: coupled NADH assay, effector test; assay type: biochemical; conditions: read-out: % residual activity at 1 mM
PFK-A2 (Sll0745) = molecular target: T5, PFK-A2 (Sll0745) (Synechocystis sp. PCC 6803, UniProt Q55988); assay: coupled NADH assay (aldolase/TPI/GPDH), […] nm; global MWC fit; assay type: biochemical
T5 construct: gene pfkA2

[6] = molecular target: the molecule itself; assay: native MS; nanoESI, Exactive Plus EMR Orbitrap, positive EMR mode; protein rebuffered to 200 mM or 1 M ammonium acetate pH 6.8, 5 uM stock; PFK-A1 also with F6P; self-association
purified protein = substrate: Nc1ncnc2c1ncn2[C@@H]1O[C@H](COP(=O)(O)OP(=O)(O)O)[C@@H](O)[C@H]1O; assay: purified protein; assay type: biochemical, Synechocystis sp. PCC 6803; conditions: MWC R-state constant, co-substrate F6P
[7] = molecular target: the molecule itself; assay: SEC; HiLoad 16/600 Superdex 200 prep grade, 50 mM HEPES/NaOH pH 7.5 (RT), 300 mM NaCl, 3 mM dithiothreitol, 1 ml/min; calibrated with five standard proteins; PFK-A1 applied at 5 mg/ml (62.5 uM), PFK-A2 at 7 mg/ml (87.5 uM); self-association

Molecule: Nc1ncnc2c1ncn2[C@@H]1O[C@H](COP(=O)(O)OP(=O)(O)O)[C@@H](O)[C@H]1O [ADP]
coupled NADH assay, phosphate donor specificity [2]: all three tested enzymes were specific for ADP and showed no activity with ATP
coupled NADH assay, phosphate donor specificity [3]: all three tested enzymes were specific for ADP and showed no activity with ATP
coupled NADH assay, phosphate donor specificity [4]: all three tested enzymes were specific for ADP and showed no activity with ATP

B1: Synechocystis sp. PCC 6803 ADP-dependent phosphofructokinase PFK-A2 (Sll0745) (enzyme, UniProt Q55988 1-384, looked up)
chain: MGTKRIGILTSGGDCPGLNAVIRAVVKASALKGWEVYGIPYGTDGFVEVAHGKYQAEDLLLTKHGYALPGMLKGLDVLQFLSGSVLGSLSKGHPEQPAIAEAILKGYAILDLEALIVIGGDGSLDIIYDLAQKGNWHIIAIPKTIDNDVPFTDLAVGFSTAVDIVTQALYDLTFTAASHERIIIVQVMGRDAGHLTLHAGIAGGADIILIPEITPCLTSEIIRNCCYQLMNLRKSGRHFALIVISEGVHDQNNKKNKHIADYLAEEISETSQHLCDIKDPAFCDLISLDIRATTLGHLQRSGTPLSFDRLLATVFGIRAVELIEQEIYDQVVIWRSGKVEHADLKPIISIIKECHQENRCPFPVDRDGFMVKTAKSLGIYLGED
notes: Phosphofructokinase isoenzyme PFK-A2 (sll0745) of Synechocystis sp; PCC 6803, amplified from genomic DNA with primers from the start codon (NdeI) to the stop codon (BamHI); calculated mass 43.64 kDa; Mainly dimer by SEC and native MS, with a lesser tetramer by native MS, so copies is left empty; No tag cleavage is described; also called ADP-PFK-A2; source: E. coli Rosetta (DE3), pET15b, purified …
stoichiometry N [6]: 4
Km (purified protein; 5 mM MgCl2, pH 7.7, 30 °C): 0.17 (±0.03) mM
kcat (purified protein; 5 mM MgCl2, pH 7.7, 30 °C): 12.3 s⁻¹
stoichiometry N [7]: 2

B2: Synechocystis sp. PCC 6803 ADP-dependent phosphofructokinase PFK-A1 (Sll1196) (enzyme, UniProt P72830 1-361, looked up)
chain: MGEIKRIGILTSGGDCAGLNAVIRSVVHHAIGTYGWEVIGIQEATQGLMENPSKAIALHRDNIDHLLMMGGTFLGTTNKGNPFAFPMADGTVRDRTEDIIAGYRQLGLDALIGIGGDGSLAILRRIAQQGGINLVGIPKTIDNDVGATEISIGFDTATNIATEALDRLHFTAASHNRVMVLEVMGRDAGHIALAAGIGGGADIILIPEIPYRIQSVCNKIRQRQAEGKNFCLVMVSEAVRTELGDQVKQIQQFGEDRYGGIGKYIAEQIAQRTGAETRVTVLGHIQRGGIPSPFDRLLGSVFGVAAVDLIAEGKFDHMVAWRNRQTISVPIEEAIQTYQTVQLDGTLVKTARGLGICLGND
notes: Phosphofructokinase isoenzyme PFK-A1 (sll1196) of Synechocystis sp; PCC 6803, amplified from genomic DNA with primers from the start codon (NdeI) to the stop codon (BamHI); calculated mass 40.47 kDa; Oligomeric state differs by method (dimer by SEC, mainly tetramer by native MS), so copies is left empty; No tag cleavage is described; also called ADP-PFK-A1; source: E. coli Rosetta (DE3), pET15b, …
stoichiometry N [6]: 4
Km (purified protein; 10 mM MgCl2, pH 7.7, 30 °C): 0.14 (±0.01) mM
kcat (purified protein; 10 mM MgCl2, pH 7.7, 30 °C): 5.9 s⁻¹
stoichiometry N [7]: 2

The remaining lines, values ahead:

Ki (PFK-A1 (Sll1196) [1]): 110 µM
Molecule: O=C(O)[C@H](O)COP(=O)(O)O [3PG]

remaining activity at 1000 µM (PFK-A1 (Sll1196) [5]): 86%
Molecule: C=C(OP(=O)(O)O)C(=O)O [PEP]

Ki (PFK-A2 (Sll0745)): 200 µM
remaining activity at 1000 µM (PFK-A1 (Sll1196) [5]): 96%
Molecule: Nc1ncnc2c1ncn2[C@@H]1O[C@H](COP(=O)(O)OP(=O)(O)OP(=O)(O)O)[C@@H](O)[C@H]1O [ATP]
